# B1: noApt vector cap (control) (structured_DNA)
# DNA: CTGCTCACCTGCCAGCTACGGACGCGGAACGCGTCCGTAGCTGGCAGGTGAGCAG
# Molecular target: Streptavidin (UniProt P22629 P22629:25-183)
# Experiment: no specific binding to plate; same buffer, room temp
# Conditions: chain copies: 4
# Procedure: Obtained vectors were tested for binding a streptavidin-coated plate. The amount of DNA retained on the plate was detected by pico-green incorporation assay.
# DNA was mixed with streptavidin-coated plate in binding buffer for 2 h, at room temp. Plate was washed 3× with same binding buffer, and the DNA that was bound to the plate was detected with PicoGreen assay in plate, without detaching DNA. [0490] Binding buffer (10×) [0491] 1 M NaCl [0492] 20 mM MgCl2 [0493] 50 mM KCl [0494] 10 mM CaCl2) [0495] 200 mM Tris-HCl, pH 7.6
# Streptavidin, sequence (P22629 25-183, one chain of several): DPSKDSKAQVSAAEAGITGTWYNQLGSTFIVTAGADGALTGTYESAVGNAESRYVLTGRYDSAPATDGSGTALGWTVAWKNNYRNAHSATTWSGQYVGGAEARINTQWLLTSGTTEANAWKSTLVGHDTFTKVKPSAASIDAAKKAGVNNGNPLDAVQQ
binder,measurement,value
B1,binding result,no binding
